pKd: −log10 of the molar value.
How the values were obtained:
[1] = target: dansyl-calmodulin (dansyl-CaM) (bovine) (UniProt P62157); test: other fluorescence titration; 1 µM dansyl-CaM titrated with Ras protein (GppNHp form); […]; 20 mM HEPES pH 7.4, 150 mM NaCl, 1 mM CaCl2, 1 mM MgCl2; excitation 335 nm, emission at 480 nm
[2] = target: H-Ras-(KKKKKK), chimeric H-Ras with the polylysine region of K-RasB at 175-180 (UniProt P01112); test: ITC; 0.3–0.8 mM CaM in the syringe injected into 20–40 µM Ras protein (GppNHp form) in the cell; […]; 20 mM HEPES pH 7.4, 150 mM NaCl, 1 mM CaCl2, 1 mM MgCl2; single set of identical sites model
K-RasB-K175A = K-RasB-K175A (UniProt P01116); test: as above
[3] = target: farnesylated K-RasB-K175A (UniProt P01116); test: as above
[4] = target: full-length K-RasB (unprocessed) (UniProt P01116); test: as above
farnesylated K-RasB = farnesylated K-RasB (UniProt P01116); test: as above

Row | Substance | pKd [1] | pKd [2] | dH [2] [kcal/mol] | stoichiometry N [2] | dH (K-RasB-K175A) [kcal/mol] | stoichiometry N (K-RasB-K175A) | dH [3] [kcal/mol] | stoichiometry N [3] | dH [4] [kcal/mol] | stoichiometry N [4] | dH (farnesylated K-RasB) [kcal/mol] | stoichiometry N (farnesylated K-RasB)
1 | H-Ras-(KKKKKK), chimeric H-Ras with the polylysine region of K-RasB at 175-180 (from UniProt P01112 1-189) (natural protein) | 5.60 | – | – | – | – | – | – | – | – | – | – | –
2 | calmodulin (CaM), Ca^2+-saturated, from bovine brain (from UniProt P62157 1-149) (natural protein) | – | 5.41 | 6.16 | 0.903 | 2.48 | 0.995 | 1.01 | 0.972 | 3.63 | 0.924 | 3.33 | 1.13
